B1: - (Plasmodium falciparum (isolate 3D7)), C0H519 (parent)
chain: MSDQINVKHKIGDTCRKLYSYFKTVNNTSTFIQNGTLTPSEFVDSGDFLVYKFKTWEWQEADKDRVVPYLPENKQFLITKNVPCKQRIKDLNNIVHDLKIVDNDWLLPSYEEDNNPTDIYEYLPNSEYTINDKNIYNYEEEEEDDNCDEAIDINNFYMENNLIKEHDPASINSTSCYSKNMLHDNLMKIRTYDVSITYDKYYQTPRIWLFGYNENGDPLKSEEIFEDILSDYSYKTVTYDPHPCTGVMTASIHPCKHAEAILNVVNNWISEEKEPRHDLYLLFLLKFISGVIPTIEYDFTTDIEIPRDSNAGL
B2: Autophagy-related protein (Plasmodium falciparum (isolate 3D7)), Q8IJK2 (parent)
chain: MPSLKDEVSFENRVAETHKIRSKYPNRIPVVCERANRSNLPIIEKKKFLVPMNMLVGEFKFILHQHINQSAYGSNMKLFRERTIYLFVNNIVPKTGLLMQDLYEMYKDEDGYLYMEYSCESCLG

Variants of: B1
Settings: with q8ijk2, Q8IJK2

| Variant | effect of a mutation on the interaction |
| --- | --- |
| W105A | decreasing interaction |

Variants of: B2
Settings: with c0h519, C0H519

| Variant | effect of a mutation on the interaction |
| --- | --- |
| R27E | disrupting interaction |
| K47E | disrupting interaction |
| K19E;K47E | disrupting interaction |
| L49A | decreasing interaction |
| E44A;K45S;K46A | decreasing interaction |
